No end group written: not given here. Pam2 = lipid part of the lipopeptide Pam2CSK4
Molecular target: soluble form of human recombinant TLR2 (extracellular domain Glu 21-Leu 590) (human, UniProt O60603 21-590)
Sequence (O60603 21-590): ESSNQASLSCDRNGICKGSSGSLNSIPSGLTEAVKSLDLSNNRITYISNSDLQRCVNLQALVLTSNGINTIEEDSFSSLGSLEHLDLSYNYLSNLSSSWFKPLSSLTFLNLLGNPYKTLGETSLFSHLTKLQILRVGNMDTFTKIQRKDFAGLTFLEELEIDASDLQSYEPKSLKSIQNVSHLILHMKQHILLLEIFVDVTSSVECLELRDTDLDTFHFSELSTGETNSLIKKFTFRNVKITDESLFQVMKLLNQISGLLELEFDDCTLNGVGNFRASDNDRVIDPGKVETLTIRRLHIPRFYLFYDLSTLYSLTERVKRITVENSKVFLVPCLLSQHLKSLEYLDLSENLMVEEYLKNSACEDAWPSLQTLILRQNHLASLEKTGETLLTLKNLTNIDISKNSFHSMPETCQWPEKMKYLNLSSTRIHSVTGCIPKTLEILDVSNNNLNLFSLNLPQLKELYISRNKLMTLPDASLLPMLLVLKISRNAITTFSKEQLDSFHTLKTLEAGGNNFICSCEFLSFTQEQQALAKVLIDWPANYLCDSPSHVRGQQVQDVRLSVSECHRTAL

B1: Pam2CSK4 lipopeptide (peptide)
peptide: C(Pam2)SKKKK
  Kd: 5.34 µM
